# B1: Protein DOA1 (Saccharomyces cerevisiae), P36037 (parent)
# chain: MGYQLSATLKGHDQDVRDVVAVDDSKVASVSRDGTVRLWSKDDQWLGTVVYTGQGFLNSVCYDSEKELLLFGGKDTMINGVPLFATSGEDPLYTLIGHQGNVCSLSFQDGVVISGSWDKTAKVWKEGSLVYNLQAHNASVWDAKVVSFSENKFLTASADKTIKLWQNDKVIKTFSGIHNDVVRHLAVVDDGHFISCSNDGLIKLVDMHTGDVLRTYEGHESFVYCIKLLPNGDIVSCGEDRTVRIWSKENGSLKQVITLPAISIWSVDCMSNGDIIVGSSDNLVRIFSQEKSRWASEDEINELSTQVEKSTISSKTIEFDESKLSPYEILQSPGRKEGQIVVVKSPQGTIEAHQFSNSSWKKVGDVVGAGATGNDKKIEFEGKTYDYVFDVDIEDGKPPLKLPINVSDNPYTAADNFLARYELPMSYRDQVVQFILKNTNGISLDQPNDNASSSAVSPSKTSVMKVLPVKQYLIMENYNPDTIFNGIVKINSNEKTFDDEILAQIGGALHDIDESWELLLSFANTIRSNWEIKTPAYDIVRLIVKKLPYSSDIKDYIEEGLGNKNITLTMLTVRILVNCFNNENWGVKLLESNQVYKSIFETIDTEFSQASAKQSQNLAIAVSTLIFNYSALVTKGNSDLELLPIVADAINTKYGPLEEYQECEEAAYRLTVAYGNLATVEPTLRQFANSVTWLANIKRSYGNVPRFKDIFDDLS
# Variants of: B1
# Conditions: with cdc48_yeast CDC48, P25694
# Chain of cdc48_yeast CDC48, P25694 (P25694 whole entry): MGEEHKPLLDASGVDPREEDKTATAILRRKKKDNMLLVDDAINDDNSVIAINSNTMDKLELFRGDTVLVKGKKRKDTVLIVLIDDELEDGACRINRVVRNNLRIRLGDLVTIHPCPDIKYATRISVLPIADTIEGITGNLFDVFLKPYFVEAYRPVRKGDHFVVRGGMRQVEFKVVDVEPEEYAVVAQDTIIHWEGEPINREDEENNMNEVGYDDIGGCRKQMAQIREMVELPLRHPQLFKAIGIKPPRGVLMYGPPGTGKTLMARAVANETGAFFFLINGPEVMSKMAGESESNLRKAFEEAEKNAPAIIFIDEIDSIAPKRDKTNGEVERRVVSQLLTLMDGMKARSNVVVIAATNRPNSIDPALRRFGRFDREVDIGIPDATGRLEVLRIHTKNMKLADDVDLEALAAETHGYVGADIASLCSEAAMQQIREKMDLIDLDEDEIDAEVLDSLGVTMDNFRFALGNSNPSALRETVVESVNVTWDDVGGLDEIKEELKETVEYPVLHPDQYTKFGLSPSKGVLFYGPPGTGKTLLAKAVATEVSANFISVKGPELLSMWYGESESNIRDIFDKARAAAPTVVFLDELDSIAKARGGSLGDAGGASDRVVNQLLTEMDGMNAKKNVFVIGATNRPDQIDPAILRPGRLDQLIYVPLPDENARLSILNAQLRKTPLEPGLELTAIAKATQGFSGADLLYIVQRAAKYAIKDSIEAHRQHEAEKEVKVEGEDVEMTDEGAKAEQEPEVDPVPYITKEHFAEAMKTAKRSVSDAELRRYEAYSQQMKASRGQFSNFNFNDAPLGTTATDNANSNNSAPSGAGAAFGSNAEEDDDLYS
row,Variant,effect of a mutation on the interaction
1,R541A,disrupting interaction
2,R669A,decreasing interaction
3,N578A,decreasing interaction

# Variants of: B1
# Conditions: with cdc48_yeast CDC48, P25694
# Remark: another data set of the same source
row,Variant,effect of a mutation on the interaction
1,R541A;R669A,disrupting interaction
